Experimental data reported in patent publication US12269859B2, “Synthetic immune receptors and methods of use thereof” (Angeles Therapeutics, Inc., priority 2016, dated 2025).

B1: 052316-D03 (protein)
chain: MALPVTALLLPLALLLHAARPDEIVLTQSPATLSLSPGERATLSCSASSSVSYMHWYQQKPGQAPRLLIYDTSKLASGIPARFSGSGSGTDFTLTISSLEPEDVAVYYCFQGSVYPFTFGQGTKLEIKRGGGGSGGGGSGGGGSQVQLQESGPGLVKPSQTLSLTCTVSGGSISTSGMGVGWIRQHPGKGLEWIGHIWWDDDKRYNPALKSRVTISVDTSKNQFSLKLSSVTAADTAVYYCARMELWSYYFDYWGQGTLVTVSSLEDLKNVFPPEVAVFEPSEAEISHTQKATLVCLATGFYPDHVELSWWVNGKEVHSGVSTDPQPLKEQPALNDSRYCLSSRLRVSATFWQNPRNHFRCQVQFYGLSENDEWTQDRAKPVTQIVSAEAWGRADCGFTSESYQQGVLSATILYEILLGKATLYAVLVSALVLMAMVKRKDSRGRAKRSGSGATNFSLLKQAGDVEENPGPTSMDWIWRILFLVGAATGAHSFEGSGTREQKLISEEDGSGIQNPDPAVYQLRDSKSSDKSVCLFTDFDSQTNVSQSKDSDVYITDKCVLDMRSMDFKSNSAVAWSNKSDFACANAFNNSIIPEDTFFPSPESSCDVKLVEKSFETDTNLNFQNLSVIGFRILLLKVAGFNLLMTLRLWSSRAKRSGSGVKQTLNFDLLKLAGDVESNPGPSRGHMTEYKPTVRLATRDDVPRAVRTLAAAFADYPATRHTVDPDRHIERVTELQELFLTRVGLDIGKVWVADDGAAVAVWTTPESVEAGAVFAEIGPRMAELSGSRLAAQQQMEGLLAPHRPKEPAWFLATVGVSPDHQGKGLGSAVVLPGVEAAERAGVPAFLETSAPRNLPFYERLGFTVTADVEVPEGPRTWCMTRKPGA
modifications: Synthetic Immune Receptor (SIR)
B2: 042916-D02 (protein)
chain: MALPVTALLLPLALLLHAARPLEGKPIPNPLLGLDSTGSGEDLKNVFPPEVAVFEPSKAEIAHTQKATLVCLATGFYPDHVELSWWVNGKEVHSGVCTDPQPLKEQPALNDSRYCLSSRLRVSATFWQNPRNHFRCQVQFYGLSENDEWTQDRAKPVTQIVSAEAWGRADCGITSASYHQGVLSATILYEILLGKATLYAVLVSALVLMAMVKRKDSRGRAKRSGSGATNFSLLKQAGDVEENPGPTSTMALPVTALLLPLALLLHAARPDVQMIQTPSSLSASLGDRVTISCRASQDIGNYLNWYQQKPDGTVKLLIYYTSRLHSGVPSRFSGSGSGTEYSLTISNLEQEDIATYFCQQGSALPPTFGGGTKLEINGGGGSGGGGSGGGGSALQLQQSGAELVRPGASVTLSCKASGYTFTDYEMHWVKQTPVHGLEWIGAIDPETGGTAYNQKFEGKAILTADKSSSTAYMELRSLTSEDSPVYYCARRRYYGSSSFDYWGQGTTLTVSSTREQKLISEEDGSGIQNPDPAVYQLRDSKSSDKSVCLFTDFDSQTNVSQSKDSDVYITDKCVLDMRSMDFKSNSAVAWSNKSDFACANAFNNSIIPEDTFFPSSDVPCDVKLVEKSFETDTNLNFQNLSVIGFRILLLKVAGFNLLMTLRLWSSRAKRSGSGVKQTLNFDLLKLAGDVESNPGPSRGHMTEYKPTVRLATRDDVPRAVRTLAAAFADYPATRHTVDPDRHIERVTELQELFLTRVGLDIGKVWVADDGAAVAVWTTPESVEAGAVFAEIGPRMAELSGSRLAAQQQMEGLLAPHRPKEPAWFLATVGVSPDHQGKGLGSAVVLPGVEAAERAGVPAFLETSAPRNLPFYERLGFTVTADVEVPEGPRTWCMTRKPGA
modifications: Synthetic Immune Receptor (SIR)
B3: 121515-X07 (protein)
chain: MALPVTALLLPLALLLHAARPLEGKPIPNPLLGLDSTGSGEDLKNVFPPEVAVFEPSKAEIAHTQKATLVCLATGFYPDHVELSWWVNGKEVHSGVCTDPQPLKEQPALNDSRYCLSSRLRVSATFWQNPRNHFRCQVQFYGLSENDEWTQDRAKPVTQIVSAEAWGRADCGITSASYHQGVLSATILYEILLGKATLYAVLVSALVLMAMVKRKDSRGRAKRSGSGATNFSLLKQAGDVEENPGPTSTMALPVTALLLPLALLLHAARPDEIVLTQSPATLSLSPGERATLSCSASSSVSYMHWYQQKPGQAPRLLIYDTSKLASGIPARFSGSGSGTDFTLTISSLEPEDVAVYYCFQGSVYPFTFGQGTKLEIKRGGGGSGGGGSGGGGSQVQLQESGPGLVKPSQTLSLTCTVSGGSISTSGMGVGWIRQHPGKGLEWIGHIWWDDDKRYNPALKSRVTISVDTSKNQFSLKLSSVTAADTAVYYCARMELWSYYFDYWGQGTLVTVSSTREQKLISEEDLGSGTPFPSLAPPIMLLVDGKQQMVVVCLVLDVAPPGLDSPIWFSAGNGSALDAFTYGPSPATDGTWTNLAHLSLPSEELASWEPLVCHTGPGAEGHSRSTQPMHLSGEASTARTCPQEPLRGTPGGALWLGVLRLLLFKLLLFDLLLTCSCLCDPAGPLPSPATTTRLRALGSHRLHPATETGGREATSSPRPQPRDRRWGDTPPGRKPGSPVRAKRSGSGVKQTLNFDLLKLAGDVESNPGPSRGHMTEYKPTVRLATRDDVPRAVRTLAAAFADYPATRHTVDPDRHIERVTELQELFLTRVGLDIGKVWVADDGAAVAVWTTPESVEAGAVFAEIGPRMAELSGSRLAAQQQMEGLLAPHRPKEPAWFLATVGVSPDHQGKGLGSAVVLPGVEAAERAGVPAFLETSAPRNLPFYERLGFTVTADVEVPEGPRTWCMTRKPGA
modifications: Synthetic Immune Receptor (SIR)
B4: 042916-C05 (protein)
chain: MALPVTALLLPLALLLHAARPLEGKPIPNPLLGLDSTGSGEDLKNVFPPEVAVFEPSKAEIAHTQKATLVCLATGFYPDHVELSWWVNGKEVHSGVCTDPQPLKEQPALNDSRYCLSSRLRVSATFWQNPRNHFRCQVQFYGLSENDEWTQDRAKPVTQIVSAEAWGRADCGITSASYHQGVLSATILYEILLGKATLYAVLVSALVLMAMVKRKDSRGRAKRSGSGATNFSLLKQAGDVEENPGPTSTMALPVTALLLPLALLLHAARPDVQMIQTPDSLAVSLGQRATISCRASESVDNYGISFMHWYQQKPGQSPKLLIYRASNLESGIPARFSGSGSRTDFTLTINPVETDDVATYYCQQNNKDPPTFGGGTKLEIKGGGGSGGGGSGGGGSGGGGSQVQLQQSGAELVKPGASVKISCKASGYAFSSYWMNWVKQRPGKGLEWIGQIYPGDGDTTYNGKFKGKATLTADKSSSTVYMQLNSLTSEDSAVYFCVRYYYGSSGYFDYWGQGTTLTVSSTREQKLISEEDGSGIQNPDPAVYQLRDSKSSDKSVCLFTDFDSQTNVSQSKDSDVYITDKCVLDMRSMDFKSNSAVAWSNKSDFACANAFNNSIIPEDTFFPSSDVPCDVKLVEKSFETDTNLNFQNLSVIGFRILLLKVAGFNLLMTLRLWSSRAKRSGSGVKQTLNFDLLKLAGDVESNPGPSRGHMTEYKPTVRLATRDDVPRAVRTLAAAFADYPATRHTVDPDRHIERVTELQELFLTRVGLDIGKVWVADDGAAVAVWTTPESVEAGAVFAEIGPRMAELSGSRLAAQQQMEGLLAPHRPKEPAWFLATVGVSPDHQGKGLGSAVVLPGVEAAERAGVPAFLETSAPRNLPFYERLGFTVTADVEVPEGPRTWCMTRKPGA
modifications: Synthetic Immune Receptor (SIR)

System: target antigen-expressing cell line
Test: Jurkat NFAT-GFP assay, coculture with target cell lines expressing the respective target antigen (summary Table 10A)
Assay type: cell-based, human
Parameters: key: The signs +/−, +, 2+ etc. after the name of the cell lines indicate the relative degree of positivity on the Jurkat-NFAT-GFP assay as measured by the % GFP positive cells; +: relative degree of positivity on the Jurkat-NFAT-GFP assay as measured by the % GFP positive cells; 2+: relative degree of positivity on the Jurkat-NFAT-GFP assay as measured by the % GFP positive cells
Conditions: relative % GFP positive cells; for NFAT-GFP ASSAY Positive Cell lines: RAJI: SIR-expressing Jurkat-NFAT-GFP cells cocultured with RAJI; for NFAT-GFP ASSAY Positive Cell lines: LAN5: SIR-expressing Jurkat-NFAT-GFP cells cocultured with LAN5
Method: (B) Induction of NFAT promoter driven GFP expression. The control vector- and SIR-expressing Jurkat-NFAT-GFP cocultured for 4-24 hours with the target antigen-expressing cell line (described above) and their ability to bind to the target antigen is assayed by measuring induction of GFP expression using Flow Cytometry. Cellular supernatant is collected and assayed for the induction of cytokines (e.g., IL2).
Jurkat NFAT-GFP Assay For Synthetic Immune Receptors. The Jurkat-NFAT-GFP cells are engineered in such a way that the IL-2 promoter, which carries NFAT binding sites, is cloned upstream of the GFP gene. These cells have been used to study signaling via TCR and CAR. The different SIRs were stably expressed in Jurkat NFAT-GFP cells by lentiviral mediated gene transfer, followed by selection with puromycin. The SIR-expressing Jurkat-NFAT-GFP cells were cocultured with the target cells at E:T ratio of approximately 1:2 for approximately 4 hours to 18 hours. When the interaction between SIRs and their target antigen results in activation of the NFAT pathway, GFP expression is induced.
Induction of GFP expression by coculturing of Jurkat-NFAT-GFP cells expressing different SIR constructs and the different target cells was studied essentially as described previously (Wu, Roybal, Puchner, Onuffer, & Lim, 2015). GFP expression was monitored by FACS analysis. A few representative examples of this assay are shown in the FIG. 13A-B. In panel A, control Jurkat-NFAT-GFP cells or those expressing SIRs targeting CD19 (clone ID 051716-I08), MPL (Clone ID: 040716-A07) and BCMA (Clone ID: 011116-A07) were incubated with RAJI (top), HEL (middle) or U266 (bottom) cells, respectively. […] In panel B, Jurkat cells expressing SIR targeting CDH6 (Clone ID: 051716-J05), CD276 (Clone ID: 050516-Q06) and Her2/neu (Clone ID: 050516-I03) were incubated with SKOV3 (top) and […] (middle and bottom) cells, respectively. […] The Jurkat-NFAT-GFP cells were engineered to express different SIRs targeting other antigens and the experiment repeated upon coculture with the target cells expressing their respective target antigen. The Jurkat-NFAT-GFP (parental) cells were used as control. The names of different SIRs, their SEQ ID NOs, component antigen binding domains and TCR chains can be determined by reference to Tables 7A-7H. A SIR is considered positive in the assay in case the SIR expressing Jurkat-NFAT-GFP cells show greater % GFP positive cells when cultured with the target cell line as compared to parental Jurkat-NFAT-GFP cells. […] The signs +/−, +, 2+ etc. after the name of the cell lines indicate the relative degree of positivity on the Jurkat-NFAT-GFP assay as measured by the % GFP positive cells after culture of the SIR expressing Jurkat-NFAT-GFP cells with that cell line. […] In addition, great diversity of response against the same target cell line is observed with Jurkat cells expressing SIRs containing different antigen binding domains targeting the same antigen (e.g., SIRs having antigen binding domains derived form different CD19 antibodies) even when the SIRs share the same TCR chains and linkers. Finally, Jurkat cells expressing SIRs targeting different antigens (e.g. CD19 vs CD20) show a diversitiy of response when exposed to the same target cell line. Thus, a diverse immune response can be generated against a single target cell by combining SIRs with different TCR chains, linkers, antigen binding domains and target specificity. Table 10A also summarizes the results of GLuc based T cell cytotoxicity assay observed with different SIRs when exposed to their target cell lines. […]

Molecule | NFAT-GFP ASSAY Positive Cell lines: RAJI | NFAT-GFP ASSAY Positive Cell lines: LAN5
B1 | RAJI (+) | 
B2 |  | LAN5 (2+)
B3 | RAJI (+) | 
B4 |  | LAN5 (+/−)
